Measured values from patent US20100279930A1 (published 2010).
No end group written: not given here.

B1: compound of SEQ ID NO:1090 (code 4059937) (peptide)
peptide: GAPLEPHAPGDNATPEEMAKYAAELRRYINKLTRPRY
modifications: ends and bridges not checked
notes: Synthetic analogue of human PP; cited for a change at position 7
B2: compound of SEQ ID NO:52 (code 6647) (peptide)
peptide: KAPLEPVYPGDNATPEQMAQYAADLRRYINMLTRPRY
notes: Synthetic analogue of human PP with an additional amino acid at position 0
B3: compound of SEQ ID NO:168 (Ala 0, Ala 23 and Lys 30, code 7215) (peptide)
peptide: AAPLEPVYPGDNATPEQMAQYAAALRRYINKLTRPRY
notes: Synthetic analogue of human PP with additional Ala at position 0, Ala at 23 and Lys at 30
B4: compound of SEQ ID NO:171 (code 7218) (peptide)
peptide: AAPLEPVYPGDNATPEQMAQYAADLRRYINKLTRPRY
modifications: ends and bridges not checked
notes: Synthetic analogue of human PP; introduced as additional Ala at position 0 and Lys at position 30, later in the same paragraph labelled 'Ala 0, Lys 19'
B5: compound of SEQ ID NO:348 (Ala 0, Lys19, Lys 30, code 4056385) (peptide)
peptide: AAPLEPVYPGDNATPEQMAKYAADLRRYINKLTRPRY
notes: Synthetic analogue of human PP with additional Ala at position 0, Lys at 19 and Lys at 30
B6: compound of SEQ ID NO:56 (code 6653) (peptide)
peptide: PAPLEPVYPGDNATPEQMAQYAADLRRYINMLTRPRY
notes: as for B2
B7: compound of SEQ ID NO:53 (code 6650) (peptide)
peptide: HAPLEPVYPGDNATPEQMAQYAADLRRYINMLTRPRY
notes: as for B2
B8: compound of SEQ ID NO:62 (code 6659) (peptide)
peptide: APLEPVYPGDNATPEQMAQYAADLRRYINMLTRPHRY
modifications: ends and bridges not checked
notes: Synthetic analogue of human PP; cited for changes at positions 34-36
B9: compound of SEQ ID NO:24 (code 6453) (peptide)
peptide: APLEPVYPGDNATPEQMAQYAADLRRYINMLTRQRY
modifications: ends and bridges not checked
notes: as for B8
B10: compound of SEQ ID NO:261 (code 4055715) (peptide)
peptide: APLEPVYPGDNATPEQMAQYAADLRRYINFLTRPRY
modifications: ends and bridges not checked
notes: Synthetic analogue of human PP; cited for changes at positions 29-31
B11: compound of SEQ ID NO:275 (code 4055745) (peptide)
peptide: APLEPFYPGDNATPEQMAQYAADLRRYINMLTRPRY
modifications: ends and bridges not checked
notes: Synthetic analogue of human PP; cited for a change at position 6
B12: compound of SEQ ID NO:276 (4055746) (peptide)
peptide: APLEPEYPGDNATPEQMAQYAADLRRYINMLTRPRY
modifications: ends and bridges not checked
notes: as for B11
B13: compound of SEQ ID NO:259 (code 4055713) (peptide)
peptide: APLEPVYPGDNATPEQMAQYAADLRRYINILTRPRY
modifications: ends and bridges not checked
notes: as for B10
B14: compound of SEQ ID NO:167 (code 7214) (peptide)
peptide: APLEPVYPGDNATPEQMAQYAAALRRYINKLTRPRY
notes: Synthetic analogue of human PP with Ala at position 23 and Lys at position 30
B15: compound of SEQ ID NO:260 (code 4055714) (peptide)
peptide: APLEPVYPGDNATPEQMAQYAADLRRYINVLTRPRY
modifications: ends and bridges not checked
notes: as for B10
B16: compound of SEQ ID NO:255 (code 4055708) (peptide)
peptide: APLEPVYPGDNATPEQMAQYAADLRRYINMLTRPRF
modifications: ends and bridges not checked
notes: as for B8
B17: compound of SEQ ID NO:702 (code 4058286) (peptide)
peptide: PAPLEAVYPGDNATPEQMARYYSELRRYINKLTRPRY
modifications: ends and bridges not checked
notes: Synthetic analogue of human PP; cited for Ala at position 5
B18: compound of SEQ ID NO:9 (Ala 0, code 6433) (peptide)
peptide: AAPLEPVYPGDNATPEQMAQYAADLRRYINMLTRPRY
notes: Synthetic analogue of human PP with an additional Ala at position 0
B19: compound of SEQ ID NO:277 (Ala 23, code 4055747) (peptide)
peptide: APLEPVYPGDNATPEQMAQYAAALRRYINMLTRPRY
notes: Synthetic analogue of human PP with Ala at position 23
B20: compound of SEQ ID NO:224 (Lys 19, code 4055291) (peptide)
peptide: APLEPVYPGDNATPEQMAKYAADLRRYINMLTRPRY
notes: Synthetic analogue of human PP with Lys at position 19
B21: compound of SEQ ID NO:281 (Lys 30, code 4055855) (peptide)
peptide: APLEPVYPGDNATPEQMAQYAADLRRYINKLTRPRY
notes: Synthetic analogue of human PP with Lys at position 30

Biological target: T1, human Y4 receptor (human, UniProt P50391 1-375)
T1 construct: whole, on cells; Used as a cell membrane preparation from transfected HEK-293T cells, not as intact cells; also called Human Y Receptor-4
T1 sequence (P50391 whole entry): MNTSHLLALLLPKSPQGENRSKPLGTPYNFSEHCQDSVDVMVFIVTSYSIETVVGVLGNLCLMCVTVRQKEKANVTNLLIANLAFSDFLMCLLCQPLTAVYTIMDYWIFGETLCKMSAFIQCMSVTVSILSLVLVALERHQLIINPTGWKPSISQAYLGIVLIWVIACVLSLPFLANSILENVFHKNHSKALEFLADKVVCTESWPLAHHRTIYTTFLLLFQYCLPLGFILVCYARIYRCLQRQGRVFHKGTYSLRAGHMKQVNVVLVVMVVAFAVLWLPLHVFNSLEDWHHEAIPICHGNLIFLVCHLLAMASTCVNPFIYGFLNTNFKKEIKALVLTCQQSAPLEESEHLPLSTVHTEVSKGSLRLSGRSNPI
Assay: 125I-PP displacement assay, human Y4 receptor membranes

Binding result, binds:
B1
B2
B3
B4
B5
B6
B7
B8
B9
B10
B11
B12
B13
B14
B15
B16
B17

Biological target: T1, human Y4 receptor
Assay: 125I-PP displacement assay, human Y4 receptor membranes; weaker reference compound

Binding result, binds:
B18
B19
B20
B21
